# Experimental data published in patent US20240336672A1.
# B1: Cv2.3194 (recombinant human IgG1) (antibody)
# heavy: EVQLVESGGGLIQPGGSLRLSCAASGITVTSNYMSWVRQAPGKGLEWVSVIYPGGSTFYADSVKGRFTISRDNSKNTLYLQMNSLRAEDTAVYYCARDLVVYGMDVWGQGTTVTVSSASTKGPSVFPLAPSSKSTSGGTAALGCLVKDYFPEPVTVSWNSGALTSGVHTFPAVLQSSGLYSLSSVVTVPSSSLGTQTYICNVNHKPSNTKVDKKVEPKSCDKTHTCPPCPAPELLGGPSVFLFPPKPKDTLMISRTPEVTCVVVDVSHEDPEVKFNWYVDGVEVHNAKTKPREEQYNSTYRVVSVLTVLHQDWLNGKEYKCKVSNKALPAPIEKTISKAKQPREPQVYTLPPSRDELTKNQVSLTCLVKGFYPSDIAVEWESNGQPENNYKTTPPVLDSDGSFFLYSKLTVDKSRWQQGNVFSCSVMHEALHNHYTQKSLSLSPGK
# light: EIVLTQSPGTLSLSPGERATLSCRASQSVSSSYLAWYQQKPGQAPRLLIYGASSRATGIPGRFSGSGSGTDFTLTISRLEPEDFAIYYCQQGVTFGGGTKVEIKRTVAAPSVFIFPPSDEQLKSGTASVVCLLNNFYPREAKVQWKVDNALQSGNSQESVTEQDSKDSTYSLSSTLTLSKADYEKHKVYACEVTHQGLSSPVTKSFNRGEC
# Legend:
# Details in all cases: remark: other sources report otherwise
# [1] = biological target: SARS-CoV-2 RBD (B.1.1.7) domain (SARS-CoV-2); test: RBD/ACE2 blocking ELISA
# [2] = biological target: SARS-CoV-2 RBD (B.1.351) domain (SARS-CoV-2); test: RBD/ACE2 blocking ELISA
# [3] = biological target: SARS-CoV-2 RBD (P.1) domain (SARS-CoV-2); test: RBD/ACE2 blocking ELISA
# [4] = biological target: T1, SARS-CoV-2 Spike ectodomain (tri-S), Wuhan (SARS-CoV-2), P0DTC2; test: competition ELISA vs bio-Cv2.1353
# [5] = biological target: T1, SARS-CoV-2 Spike ectodomain (tri-S), …; test: competition ELISA vs bio-Cv2.3194
# [6] = biological target: T1, SARS-CoV-2 Spike ectodomain (tri-S), …; test: tri-S/ACE2 blocking ELISA [B]
# [7] = biological target: T1, SARS-CoV-2 Spike ectodomain (tri-S), …; test: competition ELISA, biotinylated tri-S to immobilized ACE2 ectodomain
# [8] = biological target: T1, SARS-CoV-2 Spike ectodomain (tri-S), …; test: SPR (Biacore), antibody coupled to CM5 chip, viral protein as analyte
binder,measurement,setting,value
B1,% binding inhibition,[1],97%
same,% binding inhibition,[2],95%
same,% binding inhibition,[3],94%
same,% inhibition (competition),[4],82
same,% inhibition (competition),[5],86
same,AUC of blocking,[6],181
same,IC50,[7],0.093 µg/mL
same,IC90,[7],0.212 µg/mL
same,Kd,[8],< 1 pM
